T1: 11-GalNAc-HP-Cy5 (VPSTPPTPSPS(GalNAc)TPPTPSPS), human IgA1 hinge peptide with GalNAc on the 11th residue, Cy5-labelled
T1 chain: VPSTPPTPSPSTPPTPSPS

T2: 4-GalNAc-HP (VPST(GalNAc)PPTPSPSTPPTPSPS), human IgA1 hinge peptide with GalNAc on the 4th residue
T2 chain: VPSTPPTPSPSTPPTPSPS

B1: C1Gal-T2 (entire ORF expressed in LSC cells, LSC-C1Gal-T2 enzyme source) (protein)
chain: MLSESSSFLKGVMLGSIFCALITMLGHIRIGHGNRMHHHEHHHLQAPNKEDILKISEDERMELSKSFRVYCIILVKPKDVSLWAAVKETWTKHCDKAEFFSSENVKVFESINMDTNDMWLMMRKAYKYAFDKYRDQYNWFFLARPTTFAIIENLKYFLLKKDPSQPFYLGHTIKSGDLEYVGMEGGIVLSVESMKRLNSLLNIPEKCPEQGGMIWKISEDKQLAVCLKYAGVFAENAEDADGKDVFNTKSVGLSIKEAMTYHPNQVVEGCCSDMAVTFNGLTPNQMHVMMYGVYRLRAFGHIFNDALVFLPPNGSDND
B2: FLAG tagged C1Gal-T3 fusion protein (C1Gal-T3 recombinant enzyme from pFLAG-C1Gal-T3, secreted by COS-1 cells) (protein)
chain: HIRHRGQTQDHEHHHLRPPNRNDFLNTSKVILLELSKSIRVFCIIFGESEDESYWAVLKETWTKHCDKAELYDTKNDNLFNIESNDRWVQMRTAYKYVFEKYGDNYNWFFLALPTTFAVIENLKYLLFTRDASQPFYLGHTVIFGDLEYVTVEGGIVLSRELMKRLNRLLDNSETCADQSVIWKLSEDKQLAICLKYAGVHAENAEDYEGRDVFNTKPIAQLIEEALSNNPQQVVEGCCSDMAITFNGLTPQKMEVMMYGLYRLRAFGHYFNDTLVFLPPVGSEND

Legend:
[1] = target: various GalNAc α1-peptides
[2] = target: T1, 11-GalNAc-HP-Cy5 …
[3] = target: T2, 4-GalNAc-HP …

| Protein | galactosyltransferase activity on acceptor substrates [1] | HPLC of the galactose transfer reaction product [2] | β1,3-galactosidase treatment of the reaction product, HPLC [2] | galactose transferring activity [3] |
| --- | --- | --- | --- | --- |
| B1 | the above experiment was repeated using various GalNAc α1-peptides as acceptor substrates. This resulted in similar reactions to that with pNp-α-GalNAc | the reaction product appeared as a new peak at 28.8 minutes | C1Gal-T2 was verified in vitro to be a core 1 synthetase, by which galactose is transferred to the nonreducing terminal of GalNAc α1-peptide through the β1,3 bond |  |
| B2 |  |  |  | galactose transferring activity could be confirmed for 4-GalNAc-HP |

Reference: US20050221422
